From patent publication US20190309066A1, “COMBINATION THERAPY FOR THE TREATMENT OF SOLID AND HEMATOLOGICAL CANCERS” (Arch Oncology, Inc., priority 2017, published 2019) come the findings set out here.

Data set [1] addresses T1, recombinant human CD47 (His-CD47) (Homo sapiens, UniProt Q08722).
T1 construct: His; purchased Acro Biosystems
As to the kind of experiment: Solid-phase His-CD47 ELISA at pH 6 or pH 8. It counts as binding. The following applies: pH 6.0 vs pH 8.0. The protocol: Binding by soluble anti-CD47 mAbs to immobilized recombinant human CD47 and to human CD47 expressed on cells was measured in vitro. For the in vitro binding to recombinant CD47, His-CD47 (AcroBiosystems) was adsorbed to high-binding microtiter plates overnight at 4° C. The wells were washed and varying concentrations of anti-CD47 mAbs were added to the wells in buffers with a of either pH 6 or pH 8 for 1 hour. The wells were washed and then incubated with HRP-labelled secondary antibody for 1 hour at pH 6 or pH 8 followed by addition of peroxidase substrate. The apparent affinities were calculated using non-linear fit model (Graphpad Prism).

For data set [2], the system named is Jurkat cells. As to the kind of experiment: In vitro cell death assay (annexin V / 7-AAD). It counts as cell-based, human. The conditions noted are these: 1 μg/ml soluble mAb, 24 hrs. The protocol:
Induction of cell death by soluble anti-CD47 mAbs is measured in vitro (Manna et al. (2003) J. Immunol. […] (7): 3544-53, Kikuchi et al. Biochem Biophys Res. Commun. 315: 912-8, 2004), Pettersen et al. J. Immuno. 162: 7031-7040, 1999), Manna et al. Cancer Research, 64: 1026-1036, 2004). For the in vitro cell death assay, 1×10^5 transformed human T cells (Jurkat cells) were incubated with soluble humanized VLX4, VLX8, and VLX9 CD47 mAbs (1 μg/ml) for 24 hrs at 37° C. As cell death occurs, mitochondrial membrane potential is decreased, the inner leaflet of the cell membrane is inverted, exposing phosphatidylserines (PS), and propidium iodide (PI) or 7-aminoactinomycin D (7-AAD) is able to incorporate into nuclear DNA. In order to detect these cellular changes, cells were then stained with fluorescently labelled annexin V and PI or 7-aminoactinomycin D (7-AAD) (BD Biosciences) and the signal detected using an Accuri C6 flow cytometer (BD Biosciences). The increase in PS exposure is determined by measuring the percent increase in annexin V signal and the percent of dead cells by measuring the percent increase in PI or 7-AAD signal. Annexin V positive (annexin V+) or annexin V positive/7-AAD negative (annexin V^+/7-AAD^−) cells are observed in early stages of cell death and annexin V positive/7-AAD positive (annexin V^+/7-AAD^+) cells are dead cells. […]

For data set [3], the system named is human red blood cells (hRBCs). As to the kind of experiment: Hemagglutination of washed hRBCs. The following applies: mAb concentrations 50 μg/ml down to 0.3 ng/ml or 0.3 pg/ml. The format is cell-based. The protocol: Hemagglutination of hRBCs was assessed following incubation of hRBCs with various concentrations of chimeric and humanized VLX4, VLX8, and VLX9 mAbs in vitro essentially as described by Kikuchi et al. Biochem Biophys Res. Commun (2004) 315:912-918. Blood was obtained from healthy donors, diluted (1:50) in PBS/1 mM EDTA/BSA and washed 3 times with PBS/EDTA/BSA. hRBCs were added to U-bottomed 96 well plates with equal volumes of the antibodies (75 μl of each) and incubated for 3 hrs at 37° C. and overnight at 4° C.

T1 sequence (Q08722 19-323): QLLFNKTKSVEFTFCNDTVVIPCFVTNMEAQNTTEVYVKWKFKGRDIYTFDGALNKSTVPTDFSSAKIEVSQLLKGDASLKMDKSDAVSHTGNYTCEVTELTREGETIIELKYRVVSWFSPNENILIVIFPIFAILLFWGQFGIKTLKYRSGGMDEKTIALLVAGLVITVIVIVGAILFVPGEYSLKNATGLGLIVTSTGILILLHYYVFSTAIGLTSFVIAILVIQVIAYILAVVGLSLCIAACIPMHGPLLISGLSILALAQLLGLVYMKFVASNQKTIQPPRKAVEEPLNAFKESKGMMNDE

B1: VLX9 IgG (murine): murine VLX9 anti-CD47 antibody (antibody, V domains shown)
VH: QVQLQQFGAELAKPGASVQMSCKASGYTFTNYWIHWVKQRPGQGLEWIGYTDPRTDYTEYNQKFKDKATLAADRSSSTAYMRLSSLTSEDSAVYYCAGGGRVGLGYWGHGSSVTVSS
VL: DVFMTQTPLSLPVSLGDQASISCRSSQNIVQSNGNTYLEWYLQKPGQSPKLLIYKVFHRFSGVPDRFSGSGSGTDFTLKISRVEAEDLGVYYCFQGSHVPWTFGGGTKVEIK
Consider B1, for which the “pH dependence of binding to His-CD47” value in data set [1] is “did not display pH dependence”.

B2: VLX9 IgG2 (xi): chimeric (murine-human) anti-CD47 mAb, human IgG2 (antibody)
heavy: QVQLQQFGAELAKPGASVQMSCKASGYTFTNYWIHWVKQRPGQGLEWIGYTDPRTDYTEYNQKFKDKATLAADRSSSTAYMRLSSLTSEDSAVYYCAGGGRVGLGYWGHGSSVTVSSASTKGPSVFPLAPCSRSTSESTAALGCLVKDYFPEPVTVSWNSGALTSGVHTFPAVLQSSGLYSLSSVVTVPSSNFGTQTYTCNVDHKPSNTKVDKTVERKCCVECPPCPAPPVAGPSVFLFPPKPKDTLMISRTPEVTCVVVDVSHEDPEVQFNWYVDGVEVHNAKTKPREEQFNSTFRVVSVLTVVHQDWLNGKEYKCKVSNKGLPAPIEKTISKTKGQPREPQVYTLPPSREEMTKNQVSLTCLVKGFYPSDIAVEWESNGQPENNYKTTPPMLDSDGSFFLYSKLTVDKSRWQQGNVFSCSVMHEALHNHYTQKSLSLSPGK
light: DVFMTQTPLSLPVSLGDQASISCRSSQNIVQSNGNTYLEWYLQKPGQSPKLLIYKVFHRFSGVPDRFSGSGSGTDFTLKISRVEAEDLGVYYCFQGSHVPWTFGGGTKVEIKRTVAAPSVFIFPPSDEQLKSGTASVVCLLNNFYPREAKVQWKVDNALQSGNSQESVTEQDSKDSTYSLSSTLTLSKADYEKHKVYACEVTHQGLSSPVTKSFNRGEC
For the molecule B2, in data set [2], the “PS exposure and cell death (annexin V+, annexin V+/7-AAD−, annexin V+/7-AAD+)” value was “induced increased PS exposure and cell death”. The “hemagglutination of hRBCs (in words)” value in data set [3] was “caused visible hemagglutination”.
